Experimental data taken from PMC8962251 (2022).

Target: SARS-CoV (2002) S1S2-His trimer (SARS-CoV (2002))
Experiment: SPR

In the case of HDFWWEYDKKNDTWTRRRR (designed binder) [CVRBDL-3_3], the Kd is reported as ~41 mM.
